From the supplement of paper PMC9170038

Tested on: MS2 coat protein
Experiment: apparent KD of MS2 coat protein; designed switch direction (-1 OFF switch, 1 ON switch): -1; higher = weaker reporter binding
In short: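 On Illumina chips, designed RNA switches with common flanks were made by stalled E. coli RNA polymerase. Titrations with SNAP-549-labelled MS2 coat protein, doubling from 0.7 or 1.5 nM to 3 µM, were done with no input, with 200 uM small-molecule ligand, or with an oligonucleotide input. Apparent KD is the median per design over clusters, from curve fits of normalised cluster fluorescence.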

[1] = input ligand: microRNA oligo, concentration not stated
[2] = Eterna round: R95, input ligand: FMN 200 uM
[3] = Eterna round: R95, input ligand: microRNA oligo, concentration not stated
[4] = Eterna round: R95, input ligand: none

Row | Sequence | apparent KD of MS2 coat protein (input ligand: FMN 200 uM) | apparent KD of MS2 coat protein (input ligand: none) | apparent KD of MS2 coat protein [1] | apparent KD of MS2 coat protein [2] | apparent KD of MS2 coat protein [3] | apparent KD of MS2 coat protein [4]
1 | GUGUUGCGAGGAUAUAUAAGGAAAUGUUCUUAGGAUAUGGAACAUGAGGAUCACCCAUGUAGAAGGUGCAUAUC [JR_Ex2_Sub048] (Eterna round: R97, puzzle: Exclusion 2) | 48.1 nM | 38.7 nM |  |  |  | 
2 | GUCGGGCAAGGAUAUGUAGCACUCUACAUGAGGAUCACCCAUGUGAGCCUGCAUGGUGCGACAGAAGGUGCAAAAG [Enencear] (Eterna round: R97, puzzle: Exclusion 5) | 330 nM | 361 nM |  |  |  | 
3 | UAGCAUUGCCAAAGGUAGUGCAUUACAUGAGGAUCACCCAUGUAGGAUAUGGUAGGCAAAGCUUACCAGAAGGACAUGAUAAUU [Mat - Exclusion NG 3 - Mod of JL - D16] (Eterna round: R96, puzzle: Exclusion NG 3) | 104 nM | 47.8 nM | 36.5 nM |  |  | 
4 | ACAAGCUAAAUCAUAUCUUACAUGAGGAUCACCCAUGUUUUUGCAAUUAUGUUUGGCCUCCUUUGUGCUCGUCUUAU [JR_STOV1_Sub051] (Eterna round: R97, puzzle: Sensor, turn-off variant 1) | 16.4 nM | 16.7 nM |  |  |  | 
5 | UUUGCAAGCUUAAGAUCCCACAUGAGGAUCACCCAUGUUGCUGCCGUGAGGUAGCAUUUAACUUAUGCUCGUCUUAU [JL TOV1 3.50] (Eterna round: R97, puzzle: Sensor, turn-off variant 1) | 140 nM | 176 nM |  |  |  | 
6 | CUGGUCCGAGGAUAUAUUAAGUGAAACAUGAGGAUCACCCAUGUAAUUUAAUGGAUGUAAAUAGAAGGCGGACUAG [Mat - Exclusion 5 - JL mod - D39] (puzzle: Exclusion 5) |  |  |  | 38.9 nM | 35.3 nM | 36.4 nM
7 | UACAUGAGGAUCACCCAUGUUUUGUCGUGUAUGGUAUUUAUCUAGGAUAUCAAAUUAUUUAUUUAUGAGAAGGAGAAUAUUAAU [JMF's solution 9] (Eterna round: R96, puzzle: Exclusion NG 3) | 37.9 nM | 44.6 nM | 26.5 nM |  |  | 
8 | UUGAUACAUACCUCCAUAAACAUGAGGAUCACCCAUGUAAGUGAGGAUAUAGAUUGAUUAGUAUACUAGAAGGCACUUAGAUAU [JR_ExcNG3_Sub044] (Eterna round: R96, puzzle: Exclusion NG 3) | 11.6 nM | 13.3 nM | 8.91 nM |  |  | 
9 | UUGUUGUAUGUAGGAUAUGCAUAUUAUUAUUGUGCAGAAGGACAUGAGGAUCACCCAUGUAUAUUAUUAUUAUAUAUUAUAUAU [Title] (Eterna round: R96, puzzle: Exclusion NG 1) |  |  | 27.2 nM |  |  | 
10 | UACGGGUCAGGAUAUGCGAGGGAGUGGGAAAUAGGAAGGUAGCAGAAGGGACAUGAGGAUCACCCAUGUAAGGA [JR_Exclu4_Sub0100] (puzzle: Exclusion 4) |  |  |  | 38.5 nM | 31.2 nM | 34.6 nM
11 | ACAUGAGGAUCACCCAUGUUUGGCUGGUUUUCUCCGGCUGUCGAGGAUAUAGUCCGGUAUCCGCGCUAGAAGGUGAGGGCUGGC [Aenatbe mod 5] (Eterna round: R96, puzzle: Exclusion NG 3) | 14.5 nM | 20.4 nM | 13.1 nM |  |  | 
12 | AUGAGCAGACGGAGAUCCAACAUGAGGAUCACCCAUGUCUCAUAAGCUUUUUGUUCAUCUUAUUGUACCUUGGUGCU [Mat - Sensor v3 - turn-off var 1 - JL Mod - D22] (puzzle: Sensor v3, turn-off variant 1) |  |  |  | 53.7 nM | 12.6 nM | 67.7 nM
13 | GGAUCGAGUGUGAGGAUAUGCUGGUCCUUGGAUCAGCAGAAGGCACAUGAGGAUCACCCAUGUGAUCAAGAUCC [Eli bmx4 4.76] (Eterna round: R97, puzzle: Brourd's mod of Exclusion 4) | 50.9 nM | 712 nM |  |  |  | 
14 | GAUUAAUUAAUUAAUUAAUACAUGAGGAUCACCCAUGUAAUUUAAGAUCCUUAUACAAGCUUUGAUCUCGUCUUAUA [Stov1/5-A2] (Eterna round: R97, puzzle: Sensor, turn-off variant 1) | 163 nM | 159 nM |  |  |  | 
15 | GAUUGAGCUGUUAGGAUAUCCGCAGGCCGCCUGGAGGAGAAGGAACAUGAGGAUCACCCAUGUGCACGGGAGGC [Xemaesti] (Eterna round: R97, puzzle: Brourd's mod of Exclusion 4) | 13.4 nM | 15.8 nM |  |  |  | 
16 | CUUAGACAUGAGGAUCACCCAUGUGAGGAUAUGAUGCGAAUAAAGAAAGAAGAAAGCAUCAGAAGGCACAUAUG (Eterna round: R96, puzzle: Exclusion 1) | 382 nM | 125 nM | 94.1 nM |  |  | 
17 | UGUGUGAGACAGGAUAUGCUGGAUGAGAGGCAGGUAGAAGGGUCUACAUGAGGAUCACCCAUGUGGCCGGUUGG [Ex6 #72] (Eterna round: R97, puzzle: Exclusion 6) | 26.9 nM | 26.3 nM |  |  |  | 

Row | Sequence | apparent KD of MS2 coat protein (input ligand: FMN 200 uM) | apparent KD of MS2 coat protein (input ligand: none) | apparent KD of MS2 coat protein [1] | apparent KD of MS2 coat protein [2] | apparent KD of MS2 coat protein [3] | apparent KD of MS2 coat protein [4]
18 | UAACUUCUUGUAAGGAUAUCGGCGCGAAAGCGCAACGAGAAGGUACAUGAGGAUCACCCAUGUGAAAUAAGAAU [Mod of Zala 12 - Jieux - Brourd's Mod of Exclusion 4] (Eterna round: R97, puzzle: Brourd's mod of Exclusion 4) | 104 nM | 28.3 nM |  |  |  | 
19 | UGCCUAGCAGGAUAUGCUCGGGAUUACAUGAGGAUCACCCAUGUGACUGAUUGUUGUCUUGCAGAAGGGCUAGGGA [JL-EX5-4.05 ViennaUCT mod] (Eterna round: R97, puzzle: Exclusion 5) | 443 nM | 99.7 nM |  |  |  | 
20 | AAUAACAAGUAAGAUCCUAACAUGAGGAUCACCCAUGUGCUCGUCUUAUAAAGUACUAUCACGAAAGUGAUAGUACA [Sensor 3, v1 - 46] (puzzle: Sensor v3, turn-off variant 1) |  |  |  | 36.5 nM | 153 nM | 43.1 nM
21 | UUUUAACAUGAGGAUCACCCAUGUGAGGAUAUCGAUUUUUAUAUUAAUAUUAAUAAAACGAGAAGGCACAUUUU [JMF 11] (puzzle: Exclusion 1) |  |  |  |  | 123 nM | 
22 | UUGUUUGUAGUGAGGAUAUCGUUGAGGAAGAGGAUCGAGAAGGCACAUGAGGAUCACCCAUGUUAGAUGUGGUU [JR_BMOE4_Sub082] (puzzle: Brourd's mod of Exclusion 4) |  |  |  |  | 99.1 nM | 
23 | UUCUUGCAAGGAUAUGAUUUAAGUAACAUGAGGAUCACCCAUGUUUUUCCGUUGUUAUGUUCAGAAGGUGCGUGAU [JR_E5_Sub021] (puzzle: Exclusion 5) |  |  |  |  | 54.2 nM | 
24 | AGAUGUUAUAAGGAUAUGCAGGCCAUCGCAUCAGCAGAAGGUGUAACAUGAGGAUCACCCAUGUAAACGAACUG [Eternabot (L1) Solution 44] (Eterna round: R97, puzzle: Exclusion 6) | 28.9 nM | 22.8 nM |  |  |  | 
25 | AGCUGUGGCCGAGGAUAUCUGAACUCAAUAACCGAAAUAUAAUCGGACAUGAGGAUCACCCAUGUAGAGAAGGCGGUCUCAGCA [Eli eng2 - 080] (Eterna round: R96, puzzle: Exclusion NG 2) |  |  | 24.2 nM |  |  | 
26 | GCCGGAUUUGUGAGGAUAUGCCUAUGGAUACAUAGGCAGAAGGCACAUGAGGAUCACCCAUGUUCCUCACCGGC [JL-BMX4-4.24 Eli mod] (Eterna round: R97, puzzle: Brourd's mod of Exclusion 4) | 232 nM | 29.8 nM |  |  |  | 
27 | GGUACUAACACGAGAGUGUUAGUACUAUAAGCUUGUGUUACAUGAGGAUCACCCAUGUCCUCAUAGGCUCGUCUUAG [Mat - Sensor v3 - Turn-off var 2 - D84] (puzzle: Sensor v3, turn-off variant 2) |  |  |  | 93.7 nM | 34.8 nM | 91.9 nM
28 | CUGUUUUUCGCAGGAUAUGCUCCUCCAUUAUUUGCAGAAGGGCGUUGAACAUGAGGAUCACCCAUGUAUGGUAAUGACUAUUGC [JR_ExcNG1_Sub067] (Eterna round: R96, puzzle: Exclusion NG 1) | 23.5 nM | 22.4 nM | 14.7 nM |  |  | 
29 | GGGUGCAGGCUGGGAUCCUACAUGAGGAUCACCCAUGUGGUCCGGUGACGUGAGUCACCGGACUUAGCUCGUCUUGU [salish99_S_TOV1_R5_008] (Eterna round: R97, puzzle: Sensor, turn-off variant 1) | 569 nM | 865 nM |  |  |  | 
30 | CUGAGCUGAGGAUAUACAUGAGGAUCACCCAUGUGUUCGAGCUUGCGUACAGGCAGAUGUAGAAGGCAGUUCGG [JL-ex3-3.34 Brourd mod] (puzzle: Exclusion 3) |  |  |  |  | 23.8 nM | 
31 | UCUGGUCGAGGAUAUACAUGAGGAUCACCCAUGUAGAUCAACCAGCGAUAGCUGGAAUGUAGAAGGCGACCAGA [E3/5-A3] (Eterna round: R97, puzzle: Exclusion 3) | 381 nM | 30.4 nM |  |  |  | 
32 | UCCUGUUAUGUUAGGAUAUCUGGUUCGACUCGAACAGAGAAGGAACAUGAGGAUCACCCAUGUCCCGGUGAUAA [Eternabot (L2) Solution 19] (Eterna round: R97, puzzle: Brourd's mod of Exclusion 4) | 85.6 nM | 33.1 nM |  |  |  | 
33 | AGCGCCAUCGUGAGAUGGCGUAUUACAUGAGGAUCACCCAUGUAGGAUAUCGAUUGCUUUGCAGUCGAGAAGGACAUGUUCUAG [JL ENG3 3.80 Mod A] (Eterna round: R96, puzzle: Exclusion NG 3) | 95.5 nM | 60.6 nM | 35.9 nM |  |  | 
